Paper PMC5551578 (2017)

T1: tetanus toxoid (UniProt P04958 1-1315)
T1 chain: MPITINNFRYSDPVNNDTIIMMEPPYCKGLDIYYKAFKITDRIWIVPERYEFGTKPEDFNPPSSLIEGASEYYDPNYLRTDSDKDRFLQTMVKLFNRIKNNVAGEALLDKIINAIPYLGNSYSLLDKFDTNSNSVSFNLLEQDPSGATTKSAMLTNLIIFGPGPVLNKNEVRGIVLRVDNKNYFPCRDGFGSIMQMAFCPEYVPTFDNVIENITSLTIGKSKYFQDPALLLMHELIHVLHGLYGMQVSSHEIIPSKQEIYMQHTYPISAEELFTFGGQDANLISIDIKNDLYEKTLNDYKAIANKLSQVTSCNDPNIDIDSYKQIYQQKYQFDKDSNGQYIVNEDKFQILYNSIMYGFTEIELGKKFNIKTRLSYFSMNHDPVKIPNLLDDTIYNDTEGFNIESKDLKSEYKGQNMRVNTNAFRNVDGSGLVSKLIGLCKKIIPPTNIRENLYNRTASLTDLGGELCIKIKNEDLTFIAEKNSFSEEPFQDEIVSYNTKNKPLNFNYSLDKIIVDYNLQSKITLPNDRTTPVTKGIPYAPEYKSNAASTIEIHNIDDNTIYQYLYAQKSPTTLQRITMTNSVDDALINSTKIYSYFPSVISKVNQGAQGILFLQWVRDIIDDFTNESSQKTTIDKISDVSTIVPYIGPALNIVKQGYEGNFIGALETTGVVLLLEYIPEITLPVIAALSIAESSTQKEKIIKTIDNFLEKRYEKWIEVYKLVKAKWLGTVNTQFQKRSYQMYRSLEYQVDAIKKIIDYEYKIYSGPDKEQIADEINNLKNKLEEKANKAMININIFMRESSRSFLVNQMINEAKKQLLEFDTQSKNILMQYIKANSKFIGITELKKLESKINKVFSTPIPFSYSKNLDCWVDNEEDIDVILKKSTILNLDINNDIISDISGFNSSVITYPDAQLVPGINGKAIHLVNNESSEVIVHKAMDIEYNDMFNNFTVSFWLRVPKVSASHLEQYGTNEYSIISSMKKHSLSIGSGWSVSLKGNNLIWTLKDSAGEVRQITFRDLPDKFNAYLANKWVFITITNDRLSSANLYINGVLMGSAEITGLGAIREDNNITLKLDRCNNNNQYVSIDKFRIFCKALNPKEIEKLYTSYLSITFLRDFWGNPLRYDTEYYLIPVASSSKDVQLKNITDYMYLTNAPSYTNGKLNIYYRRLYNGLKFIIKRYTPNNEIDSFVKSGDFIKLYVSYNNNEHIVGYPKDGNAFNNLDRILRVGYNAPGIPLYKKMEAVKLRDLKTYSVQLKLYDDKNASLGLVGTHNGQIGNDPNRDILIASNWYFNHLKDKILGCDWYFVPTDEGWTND

B1: TT-Ab10 (antibody, V domains shown)
VH: EVQLVESGGGLVQPGGSLRVSCGASGFTFANFWMSWVRQAPGKGLEWVANINQDGNERKYVDSVKGRFTISRDNDKNSLYLQMNSLRAEDTAVYFCAREYGSYWRTYYFDDWGQGTLVTVSS
VL: DIVMTQSPATLSLSPGERATLSCRASQSVSNYLAWYQQKPGQAPRLLIYDASNRASGTPARFSGSGFGTDFTLTISSLDPEDFAVYYCQQGSNWLTFGGGTKVEIK
B2: TT-Ab4 (antibody, V domains shown)
VH: EVQLVQSGAEMKKPGSSVKVSCRMSGGKFNNYAMSWVRQAPGQGLEWVGGIIPVLGTANYAQKFQDRVAITADKSTNTAYMELSSLRSDDTAVYYCARVWGTVVTQGPSQVQYNHYGMDVWGQGTTVTVSS
VL: DIQLTQSPSSLSASVGDRVTITCRATQSISSSLNWYQHKPGKAPNLLISAASNLQSGVPSRFSGSGSRTDFTLTITNLQPEDFATYYCQQSYTTPLTFGGGTKVEIK
B3: TT-Ab9 (antibody, V domains shown)
VH: EVQLVESGGSLVQPGGSLRLSCVGTGFTFNTYWMSWVRQAPGKGLEWVANIKQDGREKHYVDSVMGRFTVSRDNAMNALYLQVNSLRVEDTAVYYCARGMTAWSLGGYQYDYWGQGTQVTVSS
VL: DIQMTQSPSSLSASVGDTVTITCRASQGIRSDLGWYQQRPGKAPKLLVYTASTLQTGVPSRFSGSGFGTDFTLTISSLQPEDFATYYCLQNYNYPRTFGQGTKVEIK
B4: TT-Ab12 (antibody, V domains shown)
VH: QVQLQESGPGLVKPSETLSLTCNVSGASISRYYWAWIRQPPGKGLEWIGYIYDSGTTTYNTSLKSRVTISRDTSKNQFSLNMMSVTAADTAVYYCARARYYYDSTGYFYGWLDPWGQGRLVTVSF
VL: DIQMTQSPSTLSASVGDRVTITCRASQSINIWLAWYQQRPGKAPDLLIYKASTLQSGVPSRFSGSGSGTEFTLTISSVQPDDFATYYCQQYKSYSCSFGQGTKVEIN
B5: TT-Ab7 (antibody, V domains shown)
VH: EVQLVESGGGWVQPGGSLRLSCAASGFTFNSFGSYGMSWVRQAPGKGLEWVSHISASGAATYYADSVKGRFTISRDNSKNTLLLQMNDLRGEDTATYYCARSVQQYLGLLGYWGQGTLVTVSS
VL: QSVLTQSPSASASLGATVKLTCTLSSGHTNYAIAWHQLQPQKAPRYLLKISNDGSHKRGDGIPDRFSGSSSGAERYLTISSLQSEDEAEYYCQTWGAGMGMFGGGTKLTVL

Molecular target: T1, tetanus toxoid
Assay: ELISA

| Binder | EC50 |
| --- | --- |
| B1 | 869 nM |
| B2 | 1060 nM |
| B3 | 1050 nM |
| B4 | 228 nM |
| B5 | 655 nM |
